The record followed here is patent publication US7465453B2, “Polypeptide fragments of CKLF1” (Peking University, priority 2004, dated 2008).

What all share (format): cell-based
The target in assay [1] is T1, CCR4 (Homo sapiens, UniProt P51679).
T1 construct: The cDNA fragments covering the open reading frames for various chemokine receptors were obtained as follows; expressed in transfected cells; host or cells: HEK293 (transient, electroporation)
T1 sequence (P51679 1-360): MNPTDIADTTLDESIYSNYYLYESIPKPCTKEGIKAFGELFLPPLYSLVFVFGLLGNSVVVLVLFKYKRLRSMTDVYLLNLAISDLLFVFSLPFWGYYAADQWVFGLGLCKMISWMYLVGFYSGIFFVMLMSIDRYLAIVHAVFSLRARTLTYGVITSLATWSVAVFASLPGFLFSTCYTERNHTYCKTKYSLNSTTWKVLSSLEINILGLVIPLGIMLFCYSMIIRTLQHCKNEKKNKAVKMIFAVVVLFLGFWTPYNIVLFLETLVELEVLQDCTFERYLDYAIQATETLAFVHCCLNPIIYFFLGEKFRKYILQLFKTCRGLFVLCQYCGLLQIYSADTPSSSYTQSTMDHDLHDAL
The assay can be described thus: Chemotaxis assay (48-well microchemotaxis chamber) of HEK293 cells transfected with CCR4. The protocol: (§1) HEK293 cells were grown in RPMI 1640 supplemented with 10% heat-inactivated FBS, penicillin (100 U/ml) and streptomycin (100 μg/ml). Every 4×10^6 HEK293 cells in 400 μl were transiently transfected by electroporation with 15 μg of the expression plasmid at 120 V, 20 ms using an electric pulse generator (Electro Square Porator ECM 830, BTX, San Diego, Calif.), and calcium mobilization assay and chemotaxis assays were performed 48 hours later.
(§2) The chemotaxis assay was performed using a 48-well microchemotaxis chamber (Neutroprobe; Cabin John, Md., U.S.A.). Chemoattractants were diluted in HEPES-buffered RPMI 1640 medium supplemented with 0.1% BSA and placed in the lower wells (28 μl/well). HEK293 cells transfected with pcDI-CCR4, -CCR5 were resuspended in the same medium at 2×10^6 cells/ml and added to the upper wells (50 μl/well), which were separated from the lower wells by a polyvinylpyrrolidone-free polycarbonate filter with 8-μm pores. The chamber was incubated for 2 hours at 37° C. in 5% CO2 and 95% air. Filters were removed from the chamber, washed, fixed, and stained with Three Step Stain Set. Cells that migrated were counted in 5 randomly selected high power fields (400×) per well. The chemotactic index (CI) was calculated from the number of cells that migrated to the control. Significant chemotaxis was defined as CI>2. In some experiments, cells were pretreated with TARC, RANTES, purified CKLF-myc protein or secreted CKLF1 peptides for 30 min. at 37° C., or 100 ng/ml PTX (ALEXIS Biochemicals Corporation) for 6 hours at 37° C. prior to subsequent stimulations.

Assay [2] deals with U937 cells. In words: Chemotaxis of U937 cells. As to conditions: for migration (chemotaxis) of U937 cells: C19, C27, RANTES: U937 cells stimulated by 30 ng/ml IFN-γ. The protocol: The chemotaxis assay was performed using a 48-well microchemotaxis chamber (Neutroprobe, Cabin John, Md., U.S.A.). U937 cells were stimulated by 30 ng/ml IFN-γ for 4 days because IFN-γ could increase the expression of chemokine receptors CCR1, CCR3, and CCR5 in U937 cells. Then part cells were incubated with mouse anti CCR5 100 μg/ml, and/or rat anti CCR3 10 μg/ml for 30 minutes at 37° C., and corresponding mouse IgG and rat IgG as controls. Chemoattractants RANTES, C19 and C27 were diluted in HEPES-buffered RPMI 1640 medium supplemented with 0.5% BSA to indicate concentration, and placed in the lower wells (28 μl/well). U937 cells stimulated by IFN-γ were resuspended in the same medium at 1×10^6 cells/ml and added to the upper wells (50 μl/well), which were separated from the lower wells by a polyvinylpyrrolidone-free polycarbonate filter with 5-μm pores pre-coated by 0.001% fibronectin. The chamber was incubated for 2 hours at 37° C. in 5% CO2 and 95% air. Filters were removed from the chamber, washed, fixed, and stained with Three Step Stain Set. Cells that migrated were counted in 5 randomly selected high power fields (400×) per well. The group with no Chemoattractants in the lower wells was used as a control. All samples were assayed twice at least. The chemotactic index (CI) was calculated from the number of cells that migrated to the control. Significant chemotaxis was defined as CI>2.

Assay [3] deals with T2, CCR6 (Homo sapiens, UniProt P51684).
T2 construct: The cDNA fragment covering the open reading frame for CCR6 chemokine receptor was cloned into pEGFP-N1 vector (CLONTECH); expressed in transfected cells; host or cells: HEK293 (transient)
T2 sequence (P51684 1-374): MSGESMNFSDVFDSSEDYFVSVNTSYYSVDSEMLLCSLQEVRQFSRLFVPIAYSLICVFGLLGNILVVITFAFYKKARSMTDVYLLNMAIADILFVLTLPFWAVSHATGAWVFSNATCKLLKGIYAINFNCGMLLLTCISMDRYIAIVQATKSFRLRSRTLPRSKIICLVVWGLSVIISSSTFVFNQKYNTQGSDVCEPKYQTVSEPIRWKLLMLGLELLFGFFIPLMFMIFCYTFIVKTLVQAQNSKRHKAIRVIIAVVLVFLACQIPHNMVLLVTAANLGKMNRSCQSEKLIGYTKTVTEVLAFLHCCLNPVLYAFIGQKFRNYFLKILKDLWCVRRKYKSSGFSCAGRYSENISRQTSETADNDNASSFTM
The assay can be described thus: Internalization of CCR6-EGFP in transiently transfected HEK293 cells. Conditions: HEK293 cells transfected with pCCR6-EGFP; 37° C., 2 hours. The protocol: (§3) The cDNA fragment covering the open reading frame for CCR6 chemokine receptor was cloned into pEGFP-N1 vector (CLONTECH). pCCR6-EGFP transiently expressing HEK293 cells were cultured in glass-bottom dishes in RPMI 1640 with 10% FBS. After 16-24 hours of serum starvation, cells were treated with CKLF1 C-terminal peptides or MIP3α at 37° C. for 2 hours. Cells were washed with cold PBS and fixed with 2% paraformaldehyde in PBS. The subcellular localization of CCR6-EGFP protein was visualized using a Leica TCS-NT confocal fluorescence microscope with a 63× oil immersion lens (Wetzler, Heidelberg, Germany). The excitation and emission wavelengths were 488 and 515-540 nm, respectively.

Assay [4] addresses T3, CCR5 (Homo sapiens, UniProt P51681).
T3 construct: The cDNA fragments covering the open reading frames for various chemokine receptors were obtained as follows; expressed in transfected cells; host or cells: HEK293 (transient, electroporation)
The assay can be described thus: Calcium flux assay in CCR5-transfected HEK293 cells.
Excerpt: (§4) The cDNA fragments covering the open reading frames for various chemokine receptors were obtained as follows. CCR4, CCR5 and CCR6 receptors were cloned from a K562 cell cDNA library by polymerase chain reaction (PCR). The primers were designed using the sequences from the following GenBank™ submissions: CCR4 (NM_005508.2), CCR5 (NM_000579) and CCR6 (AY242126). The fragments were cloned into an expression vector pcDI (modified in our lab from pcDNA3 vector (Invitrogen), in which the part between BgI II-Kpn I was replaced by the fragment of pCl vector (Promega) digested with BgI II-Kpn I) or pEGFP-N1 vector (CLONTECH) for efficient expression in HEK293 cells. The sequences coding receptors in expression plasmids were confirmed by DNA sequencing, which is consistent with the sequence submitted in GenBank™.
as §1
(§5) HEK293 cells transfected with pcDI-CCR4 or pcDI-CCR5 were grown in specialized glass-bottom microwell dishes (MatTek Corporation, U.S.A.) and loaded with 10 μM fluo-3/AM in HEPES-buffered saline at 37° C. for 1 hour in the dark. The cells were rinsed with HEPES-buffered saline and stimulated with 167 nM secreted CKLF1 peptides and 100 nM TARC or RANTES, respectively. Fluorescence was monitored at 488 nm (excitation wavelength) and 530 nm (emission wavelength) every 5 second using a Leica TCS-NT confocal fluorescence microscope with a 40× oil immersion lens (Wetzler, Heidelberg, Germany). The measurement was completed at room temperature and each field of cells was selected at random. Images were collected at 5 second intervals for 405 seconds. The images were analyzed for relative fluorescence using Leica confocal software. The relative fluorescence was determined using Microsoft Excel. All calcium flux assays were performed in the presence of extracellular calcium (in the absence of EDTA or EGTA) in the assay buffers. Therefore, both intracellular calcium release and extracellular calcium influx were analyzed.
(A change in cytosolic calcium serves as a functional read-out for many receptors and channels.)

The target in assay [5] is T3, CCR5. In words: Chemotaxis assay (48-well microchemotaxis chamber) of HEK293 cells transfected with CCR5. As for the experimental part: as §1
as §2, with “In some experiments, cells were pretreated with TARC, RANTES, purified CKLF-myc protein or secreted CKLF1 peptides for 30 min. at 37° C., or 100 ng/ml PTX (ALEXIS Biochemicals Corporation) for 6 hours at 37° C. prior to subsequent stimulations.” left out

Assay [6] has as its target T1, CCR4. The assay can be described thus: Internalization of CCR4-EGFP in transiently transfected HEK293 cells. As to conditions: HEK293 cells transfected with pCCR4-EGFP; 37° C., 2 hours. The protocol: as §3, with “CCR4” for “CCR6”, “pCCR4-EGFP” for “pCCR6-EGFP”, “16 to 24” for “16-24”, “hours” for “hours of”, “TARC” for “MIP3α”, “CCR4-EGFP” for “CCR6-EGFP”
The target in assay [7] is T1, CCR4. The assay can be described thus: Calcium flux assay in CCR4-transfected HEK293 cells.
Excerpt: as §4, §1, §5

Ends that are not written are not given here.

T3 sequence (P51681 whole entry, the tested form may be a part): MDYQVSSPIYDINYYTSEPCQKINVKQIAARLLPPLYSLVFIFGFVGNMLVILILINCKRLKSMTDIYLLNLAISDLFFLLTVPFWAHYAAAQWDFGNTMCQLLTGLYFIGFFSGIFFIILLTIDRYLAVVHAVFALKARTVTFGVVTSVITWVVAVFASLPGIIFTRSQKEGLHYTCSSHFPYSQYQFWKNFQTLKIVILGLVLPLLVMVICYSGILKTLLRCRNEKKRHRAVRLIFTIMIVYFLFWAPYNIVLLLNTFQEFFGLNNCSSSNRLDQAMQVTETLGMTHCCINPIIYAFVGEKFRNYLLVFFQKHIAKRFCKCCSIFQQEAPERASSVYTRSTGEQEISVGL

As for “CKLF1-myc protein: recombinant CKLF1-myc protein expressed in Drosophila S2 cells and purified from the supernatant (ALIYRKLLFNPSGPYQKKPVHEKKEVL; not fully specified)”, the “migration (chemotaxis) of transfected cells” value in assay [1] (CCR4-transfected HEK293 cells) is “could induce the chemotaxis”. Further, the “migration (chemotaxis) of U937 cells” value in assay [2] is given as “can induce the chemotaxis”.

Consider “MIP3α: chemokine used as comparison treatment in the CCR6-EGFP internalization assay [reference compound]”, for which the “internalization of CCR6-EGFP” value in assay [3] is recorded as “internalization of chemokine receptors induced by MIP3α”.

Take “RANTES: cognate ligand for CCR5 (peprotech), positive control [reference compound]”: in assay [4] (CCR5-transfected HEK293 cells, 167 nM C27 or C19, 100 nM RANTES), the calcium flux result was “induced calcium flux”. Besides, in assay [4] (CCR5 transfectants, pretreatment with 100 nM RANTES), the “desensitization of the receptor to subsequent stimulation with C27 and C19” value was “desensitized the receptor”. Besides, the “chemotaxis induced after PTX pretreatment” value in assay [5] (CCR5-transfected HEK293 cells treated with 100 ng/ml PTX at 37° C. for 30 min) is reported as “completely abolished by PTX”. In addition, in assay [5] (HEK293/CCR5, pretreatment 1 mM RANTES or 2 μg/ml C27 or C19, 37° C., 30 min), the “desensitization of the receptor to subsequent stimulation with RANTES, C27 or C19 (chemotaxis)” value is listed as “could desensitize the receptor”. In addition, the “desensitization of the receptor to subsequent stimulation with the purified CKLF1-myc protein (chemotaxis)” value in assay [1] (CCR4-transfected HEK293, pretreatment) is recorded as “could desensitize the receptor”. Besides, the “migration (chemotaxis) of U937 cells” value in assay [2] was “could induce migration”. The “chemotactic activity after neutralization of chemokine receptors” value in assay [2] (IFN-γ-stimulated U937 cells, mouse anti CCR5 and/or rat anti CCR3) is on record as “obviously inhibited”.

B1: TARC: cognate ligand for CCR4 (peprotech), positive control (protein)
chain: ARGTNVGRECCLEYFKGAIPLRKLKTWYQTSEDCSRDAIVFVTVQGRAICSDPNNKRVKNAVKYLQSLERS
With B1, the “internalization of CCR4-EGFP” value in assay [6] is recorded as “internalization of chemokine receptors induced by TARC”. The calcium flux entry in assay [7] (CCR4-transfected HEK293 cells, 167 nM C27 or C19, 100 nM TARC) is “induced calcium flux”. In assay [7] (CCR4 transfectants, pretreatment with 100 nM TARC), the “desensitization of the receptor to subsequent stimulation with C27 and C19” value is “desensitized the receptor”. Besides, the “chemotaxis induced after PTX pretreatment” value in assay [1] (CCR4-transfected HEK293 cells treated with 100 ng/ml PTX at 37° C. for 30 min) was “completely abolished by PTX”. For the same molecule, the “desensitization of the receptor to subsequent stimulation with TARC, C27 or C19 (chemotaxis)” value in assay [1] (HEK293/CCR4, pretreatment TARC or 2 μg/ml C27 or C19, 37° C., 30 min) was “could desensitize the receptor”.
